# Data from patent publication US8835467B2, “SIR2 regulation” (Albert Einstein College of Medicine of Yeshiva University, priority 2003, dated 2014).
# Tested on: NC(=O)c1cccnc1
# Assay: Sir2 catalyzed base exchange with H4 N-terminal peptide
# Format: biochemical, yeast
# Conditions: other: 0 mM isonicotinamide
substance,measurement,value
Yeast Sir2 (Saccharomyces cerevisiae S288C),Km,120 µM
